# Measured values as given in article PMC10672810, “Research of Multicopper Oxidase and Its Degradation of Histamine in Lactiplantibacillus plantarum LPZN19” (Microorganisms, 2023).
# Experiments:
# [1] = substrate: NCCc1c[nH]cn1; assay: histamine degradation monitored by LC-MS; format: biochemical, Lactiplantibacillus plantarum; details: 50 °C, pH not stated for this assay
# [2] = substrate: CCn1c(=NN=c2sc3cc(S(=O)(=O)O)ccc3n2CC)sc2cc(S(=O)(=O)O)ccc21; assay: ABTS oxidation, visible absorption, Lineweaver-Burk; format: biochemical, Lactiplantibacillus plantarum; details: MES buffer, pH 3.5, 50 °C, 2 h
# Description: ABTS oxidation, visible absorption, Lineweaver-Burk on MCO (multicopper oxidase)
protein,measurement,setting,value
"MCO (multicopper oxidase) (Lactiplantibacillus plantarum WCFS1) (protein, full length, 501 residues, no signal peptide; pET-28a EcoRI/HindIII, N-terminal His-tag (about 67 kDa on SDS-PAGE), E. coli BL21 (DE3), Ni-NTA; primers imply N-terminus MAKKVYTD and C-terminus WMPGM; peptides EFHDDNQFDYR, GLATMVIIKDDVEDOLPLPR) MAKKVYTDYFFDEPAYNTHDGGYIPLVTPKVEPQPLAIPPLLKPDRQTDTDDYYTVTAQESETQFLPGKKTKTWGYNAGFLGQTIVFRNGKQTHIDLENKLPELTTFHWHGLNVPGPITDGGCHAPVYPGETNHIDFKVHQPAATTWLHAHPCPSTATQVWKGLATMVIIKDDVEDQLPLPRNYGVDDIPLVLQDREFHDDNQFDYRADYDPDGVQGHTALVNGTVNPYFDVTTQRVRLRILDGSNRREWRLHFNDDLEFAQVASDGGILPAPVYMTKVMMTCAERDEIVVDFGQYQPGDEVTLMTDDTPLCRFRIKSFVPDDTKLPEHLVDIPDETPTPDLPVRTITMDGMDDEVALDGKKFDMSRIDARQKVGDVAIWEIRNTNSTENGMVHPFHVHGTQFRVLARNDGPVYPNEHGLKDTVGVNPGETVRIKVKFELTGVYMYHCHIIEHEDGGMMAQIESYDPQHPQTYHLMDMDTLRNAFAKEQGIKPEDVWMPGM",Km,[1],2070 ± 180 µM
same,Km,[2],2180 ± 130 µM
same,kcat,[2],3.77 ± 0.09 s⁻¹
same,kcat/Km,[2],1730 ± 160 M⁻¹ s⁻¹
